Data from patent US9958461B2, “Detection of protein to protein interactions” (THE GOVERNING COUNCIL OF THE UNIVERSITY OF TORONTO, priority 2013, dated 2018).

Columns and labels:
EGFR-Wt [1] = target: T1, EGFR-Wt (Homo sapiens, UniProt P00533); experiment: MaMTH EGFR-interactor screen, lentiviral preys against EGFR-wildtype bait (interaction score); type: cell-based; details: MaMTH interaction score of prey with EGFR-Wt bait, mean
T1 construct: with the advantage of testing full-length integral membrane proteins; (GGGGS)2 linker-Cub (human ubiquitin aa 35-76)-GAL4(1-147)-mNFkB(364-550) (C); expressed in transfected cells
Outline: (§1)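 Interaction score is the luciferase fold-change versus averaged negative controls (Fabp5, Pex19, Pex7, GABBR2), with >1 called interacting. Luciferase was measured 24 h after triplicate bait transfection. This followed single-copy prey transduction (MOI ~0.3-0.4) of GAL4UAS-luciferase HEK293T cells and ≥48 h puromycin selection.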

EGFR-Wt [2] = experiment: as above; type: cell-based, human; details: ratio of EGFR-Wt mean to EGFR-L858R mean interaction score
Outline: as §1

EGFR-L858R = target: T2, EGFR-L858R (Homo sapiens, UniProt P00533, L858R); experiment: MaMTH EGFR-interactor screen, lentiviral preys against EGFR-L858R bait (interaction score); type: cell-based; details: MaMTH interaction score of prey with EGFR-L858R bait
T2 construct: with the advantage of testing full-length integral membrane proteins; (GGGGS)2 linker-Cub (human ubiquitin aa 35-76)-GAL4(1-147)-mNFkB(364-550) (C); expressed in transfected cells
Outline: as §1

EGFR-Wt mean (EGFR-Wt [1])	EGFR-L858R mean (EGFR-L858R)	Molecule	Wt/L858R (EGFR-Wt [2])
1.30	2.15	WASF3 (protein, UniProt Q9UPY6 1-502, looked up) Actin-binding protein WASF3: MPLVKRNIEPRHLCRGALPEGITSELECVTNSTLAAIIRQLSSLSKHAEDIFGELFNEANNFYIRANSLQDRIDRLAVKVTQLDSTVEEVSLQDINMKKAFKSSTVQDQQVVSKNSIPNPVADIYNQSDKPPPLNILTPYRDDKKDGLKFYTDPSYFFDLWKEKMLQDTEDKRKEKRRQKEQKRIDGTTREVKKVRKARNRRQEWNMMAYDKELRPDNRLSQSVYHGASSEGSLSPDTRSHASDVTDYSYPATPNHSLHPQPVTPSYAAGDVPPHGPASQAAEHEYRPPSASARHMALNRPQQPPPPPPPQAPEGSQASAPMAPADYGMLPAQIIEYYNPSGPPPPPPPPVIPSAQTAFVSPLQMPMQPPFPASASSTHAAPPHPPSTGLLVTAPPPPGPPPPPPGPPGPGSSLSSSPMHGPPVAEAKRQEPAQPPISDARSDLLAAIRMGIQLKKVQEQREQEAKREPVGNDVATILSRRIAVEYSDSDDDSEFDENDWSD	0.61
4.58	7.85	SH3GL2 (protein, UniProt Q99962 1-352, looked up) Endophilin-A1: MSVAGLKKQFHKATQKVSEKVGGAEGTKLDDDFKEMERKVDVTSRAVMEIMTKTIEYLQPNPASRAKLSMINTMSKIRGQEKGPGYPQAEALLAEAMLKFGRELGDDCNFGPALGEVGEAMRELSEVKDSLDIEVKQNFIDPLQNLHDKDLREIQHHLKKLEGRRLDFDYKKKRQGKIPDEELRQALEKFDESKEIAESSMFNLLEMDIEQVSQLSALVQAQLEYHKQAVQILQQVTVRLEERIRQASSQPRREYQPKPRMSLEFPTGDSTQPNGGLSHTGTPKPSGVQMDQPCCRALYDFEPENEGELGFKEGDIITLTNQIDENWYEGMLHGHSGFFPINYVEILVALPH	0.58
1.45	2.68	VAV1 (protein, UniProt P15498 1-845, looked up) Proto-oncogene vav: MELWRQCTHWLIQCRVLPPSHRVTWDGAQVCELAQALRDGVLLCQLLNNLLPHAINLREVNLRPQMSQFLCLKNIRTFLSTCCEKFGLKRSELFEAFDLFDVQDFGKVIYTLSALSWTPIAQNRGIMPFPTEEESVGDEDIYSGLSDQIDDTVEEDEDLYDCVENEEAEGDEIYEDLMRSEPVSMPPKMTEYDKRCCCLREIQQTEEKYTDTLGSIQQHFLKPLQRFLKPQDIEIIFINIEDLLRVHTHFLKEMKEALGTPGAANLYQVFIKYKERFLVYGRYCSQVESASKHLDRVAAAREDVQMKLEECSQRANNGRFTLRDLLMVPMQRVLKYHLLLQELVKHTQEAMEKENLRLALDAMRDLAQCVNEVKRDNETLRQITNFQLSIENLDQSLAHYGRPKIDGELKITSVERRSKMDRYAFLLDKALLICKRRGDSYDLKDFVNLHSFQVRDDSSGDRDNKKWSHMFLLIEDQGAQGYELFFKTRELKKKWMEQFEMAISNIYPENATANGHDFQMFSFEETTSCKACQMLLRGTFYQGYRCHRCRASAHKECLGRVPPCGRHGQDFPGTMKKDKLHRRAQDKKRNELGLPKMEVFQEYYGLPPPPGAIGPFLRLNPGDIVELTKAEAEQNWWEGRNTSTNEIGWFPCNRVKPYVHGPPQDLSVHLWYAGPMERAGAESILANRSDGTFLVRQRVKDAAEFAISIKYNVEVKHIKIMTAEGLYRITEKKAFRGLTELVEFYQQNSLKDCFKSLDTTLQFPFKEPEKRTISRPAVGSTKYFGTAKARYDFCARDRSELSLKEGDIIKILNKKGQQGWWRGEIYGRVGWFPANYVEEDYSEYC	0.54

Second part, the molecule before the results:

Molecule	EGFR-Wt mean (EGFR-Wt [1])	EGFR-L858R mean (EGFR-L858R)	Wt/L858R (EGFR-Wt [2])
HDAC7 (protein, UniProt Q8WUI4 1-952, looked up) Histone deacetylase 7: MDLRVGQRPPVEPPPEPTLLALQRPQRLHHHLFLAGLQQQRSVEPMRLSMDTPMPELQVGPQEQELRQLLHKDKSKRSAVASSVVKQKLAEVILKKQQAALERTVHPNSPGIPYRTLEPLETEGATRSMLSSFLPPVPSLPSDPPEHFPLRKTVSEPNLKLRYKPKKSLERRKNPLLRKESAPPSLRRRPAETLGDSSPSSSSTPASGCSSPNDSEHGPNPILGSEALLGQRLRLQETSVAPFALPTVSLLPAITLGLPAPARADSDRRTHPTLGPRGPILGSPHTPLFLPHGLEPEAGGTLPSRLQPILLLDPSGSHAPLLTVPGLGPLPFHFAQSLMTTERLSGSGLHWPLSRTRSEPLPPSATAPPPPGPMQPRLEQLKTHVQVIKRSAKPSEKPRLRQIPSAEDLETDGGGPGQVVDDGLEHRELGHGQPEARGPAPLQQHPQVLLWEQQRLAGRLPRGSTGDTVLLPLAQGGHRPLSRAQSSPAAPASLSAPEPASQARVLSSSETPARTLPFTTGLIYDSVMLKHQCSCGDNSRHPEHAGRIQSIWSRLQERGLRSQCECLRGRKASLEELQSVHSERHVLLYGTNPLSRLKLDNGKLAGLLAQRMFVMLPCGGVGVDTDTIWNELHSSNAARWAAGSVTDLAFKVASRELKNGFAVVRPPGHHADHSTAMGFCFFNSVAIACRQLQQQSKASKILIVDWDVHHGNGTQQTFYQDPSVLYISLHRHDDGNFFPGSGAVDEVGAGSGEGFNVNVAWAGGLDPPMGDPEYLAAFRIVVMPIAREFSPDLVLVSAGFDAAEGHPAPLGGYHVSAKCFGYMTQQLMNLAGGAVVLALEGGHDLTAICDASEACVAALLGNRVDPLSEEGWKQKPNLNAIRSLEAVIRVHSKYWGCMQRLASCPDSWVPRVPGADKEEVEAVTALASLSVGILAEDRPSEQLVEEEEPMNL	2.37	4.35	0.55
MAP3K3 (protein, UniProt Q99759 1-626, looked up) Mitogen-activated protein …: MDEQEALNSIMNDLVALQMNRRHRMPGYETMKNKDTGHSNRQSDVRIKFEHNGERRIIAFSRPVKYEDVEHKVTTVFGQPLDLHYMNNELSILLKNQDDLDKAIDILDRSSSMKSLRILLLSQDRNHNSSSPHSGVSRQVRIKASQSAGDINTIYQPPEPRSRHLSVSSQNPGRSSPPPGYVPERQQHIARQGSYTSINSEGEFIPETSEQCMLDPLSSAENSLSGSCQSLDRSADSPSFRKSRMSRAQSFPDNRQEYSDRETQLYDKGVKGGTYPRRYHVSVHHKDYSDGRRTFPRIRRHQGNLFTLVPSSRSLSTNGENMGLAVQYLDPRGRLRSADSENALSVQERNVPTKSPSAPINWRRGKLLGQGAFGRVYLCYDVDTGRELASKQVQFDPDSPETSKEVSALECEIQLLKNLQHERIVQYYGCLRDRAEKTLTIFMEYMPGGSVKDQLKAYGALTESVTRKYTRQILEGMSYLHSNMIVHRDIKGANILRDSAGNVKLGDFGASKRLQTICMSGTGMRSVTGTPYWMSPEVISGEGYGRKADVWSLGCTVVEMLTEKPPWAEYEAMAAIFKIATQPTNPQLPSHISEHGRDFLRRIFVEARQRPSAEELLTHHFAQLMY	2.01	3.46	0.58
CDC25C (protein, UniProt P30307 2-473, looked up) M-phase inducer phosphatase 3: STELFSSTREEGSSGSGPSFRSNQRKMLNLLLERDTSFTVCPDVPRTPVGKFLGDSANLSILSGGTPKRCLDLSNLSSGEITATQLTTSADLDETGHLDSSGLQEVHLAGMNHDQHLMKCSPAQLLCSTPNGLDRGHRKRDAMCSSSANKENDNGNLVDSEMKYLGSPITTVPKLDKNPNLGEDQAEEISDELMEFSLKDQEAKVSRSGLYRSPSMPENLNRPRLKQVEKFKDNTIPDKVKKKYFSGQGKLRKGLCLKKTVSLCDITITQMLEEDSNQGHLIGDFSKVCALPTVSGKHQDLKYVNPETVAALLSGKFQGLIEKFYVIDCRYPYEYLGGHIQGALNLYSQEELFNFFLKKPIVPLDTQKRIIIVFHCEFSSERGPRMCRCLREEDRSLNQYPALYYPELYILKGGYRDFFPEYMELCEPQSYCPMHHQDHKTELLRCRSQSKVQEGERQLREQIALLVKDMSP	2.12	3.94	0.54
PAK1 (protein, UniProt Q13153 2-545, looked up) Serine/threonine-protein …: SNNGLDIQDKPPAPPMRNTSTMIGAGSKDAGTLNHGSKPLPPNPEEKKKKDRFYRSILPGDKTNKKKEKERPEISLPSDFEHTIHVGFDAVTGEFTGMPEQWARLLQTSNITKSEQKKNPQAVLDVLEFYNSKKTSNSQKYMSFTDKSAEDYNSSNALNVKAVSETPAVPPVSEDEDDDDDDATPPPVIAPRPEHTKSVYTRSVIEPLPVTPTRDVATSPISPTENNTTPPDALTRNTEKQKKKPKMSDEEILEKLRSIVSVGDPKKKYTRFEKIGQGASGTVYTAMDVATGQEVAIKQMNLQQQPKKELIINEILVMRENKNPNIVNYLDSYLVGDELWVVMEYLAGGSLTDVVTETCMDEGQIAAVCRECLQALEFLHSNQVIHRDIKSDNILLGMDGSVKLTDFGFCAQITPEQSKRSTMVGTPYWMAPEVVTRKAYGPKVDIWSLGIMAIEMIEGEPPYLNENPLRALYLIATNGTPELQNPEKLSAIFRDFLNRCLEMDVEKRGSAKELLQHQFLKIAKPLSSLTPLIAAAKEATKNNH	1.50	2.70	0.55
PDCD6IP (protein, UniProt Q8WUM4 2-868, looked up) Programmed cell death …: ATFISVQLKKTSEVDLAKPLVKFIQQTYPSGGEEQAQYCRAAEELSKLRRAAVGRPLDKHEGALETLLRYYDQICSIEPKFPFSENQICLTFTWKDAFDKGSLFGGSVKLALASLGYEKSCVLFNCAALASQIAAEQNLDNDEGLKIAAKHYQFASGAFLHIKETVLSALSREPTVDISPDTVGTLSLIMLAQAQEVFFLKATRDKMKDAIIAKLANQAADYFGDAFKQCQYKDTLPKEVFPVLAAKHCIMQANAEYHQSILAKQQKKFGEEIARLQHAAELIKTVASRYDEYVNVKDFSDKINRALAAAKKDNDFIYHDRVPDLKDLDPIGKATLVKSTPVNVPISQKFTDLFEKMVPVSVQQSLAAYNQRKADLVNRSIAQMREATTLANGVLASLNLPAAIEDVSGDTVPQSILTKSRSVIEQGGIQTVDQLIKELPELLQRNREILDESLRLLDEEEATDNDLRAKFKERWQRTPSNELYKPLRAEGTNFRTVLDKAVQADGQVKECYQSHRDTIVLLCKPEPELNAAIPSANPAKTMQGSEVVNVLKSLLSNLDEVKKEREGLENDLKSVNFDMTSKFLTALAQDGVINEEALSVTELDRVYGGLTTKVQESLKKQEGLLKNIQVSHQEFSKMKQSNNEANLREEVLKNLATAYDNFVELVANLKEGTKFYNELTEILVRFQNKCSDIVFARKTERDELLKDLQQSIAREPSAPSIPTPAYQSSPAGGHAPTPPTPAPRTMPPTKPQPPARPPPPVLPANRAPSATAPSPVGAGTAAPAPSQTPGSAPPPQAQGPPYPTYPGYPGYCQMPMPMGYNPYAYGQYNMPYPPVYHQSPGQAPYPGPQQPSYPFPQPPQQSYYPQQ	7.39	14.05	0.53
